Literature values in US7449311B2, “Method of producing macedocin by culturing Streptococcus macedonicus” (Vrije Universiteit Brussel, priority 2001, dated 2008).
Where two headings read alike, the source gives them in different places.

SA-FF22: lantibiotic isolated from pathogenic Streptococcus pyogenes FF22 (SEQ ID NO 2) (GKNGVFKTISHECHLNTWAFLATCCS; Streptococcus pyogenes)
loss of activity (at a pH of 7 (Tagg et al., 1978)): 50%
loss of activity (stored for 4 weeks at room temperature (Tagg et al., 1973)): 75%
